Measured values from patent US20200376013.

Test system: SDM-145

Chain of hMMP-9 (chain, as listed by the source): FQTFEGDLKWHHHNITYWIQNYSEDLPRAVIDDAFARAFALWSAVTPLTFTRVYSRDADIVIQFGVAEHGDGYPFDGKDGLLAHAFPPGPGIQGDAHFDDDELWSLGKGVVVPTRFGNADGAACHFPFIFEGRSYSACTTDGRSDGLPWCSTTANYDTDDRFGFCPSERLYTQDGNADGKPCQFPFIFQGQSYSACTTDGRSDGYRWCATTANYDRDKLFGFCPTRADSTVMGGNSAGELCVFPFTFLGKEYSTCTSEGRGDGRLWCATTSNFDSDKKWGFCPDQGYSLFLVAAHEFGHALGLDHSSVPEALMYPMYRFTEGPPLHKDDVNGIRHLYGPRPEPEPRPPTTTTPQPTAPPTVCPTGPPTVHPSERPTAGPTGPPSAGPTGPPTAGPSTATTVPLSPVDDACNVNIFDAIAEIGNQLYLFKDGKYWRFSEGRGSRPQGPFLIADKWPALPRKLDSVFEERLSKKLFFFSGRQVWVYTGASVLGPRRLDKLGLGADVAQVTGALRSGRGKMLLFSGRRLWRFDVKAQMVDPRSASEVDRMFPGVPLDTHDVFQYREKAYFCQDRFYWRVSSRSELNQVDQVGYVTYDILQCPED

## Cathepsin B, human liver
  cleavage followed by LC-MS with fluorescence detection (ex 480 nm, em 560 nm), sodium acetate buffer pH 5.0, 37 C: The cleavage reaction was complete after 17 hour.

## hMMP-9
  cleavage followed by LC-MS with fluorescence detection (ex 480 nm, em 560 nm), TCNB buffer pH 7.5, 37 C: The cleavage reaction was complete after 17 hour.
